According to patent US20190142971A1, “FORMULATION AND DELIVERY OF MODIFIED NUCLEOSIDE, NUCLEOTIDE, AND NUCLEIC ACID COMPOSITIONS” (ModernaTX, Inc., priority 2013, published 2019):

Test system: non-human primates (cynomolgus monkey)
Test: Example 22: NHP hematology: neutrophils, reticulocytes, HGB, HCT, RBC (Tables 40-44)
Type: in vivo
Protocol: LNP formulations, shown in Table 33 (above), were administered to non-human primates (NHP) (cynomolgus monkey) (n=2) as intravenous injection (IV). The NHP were administered a single modified mRNA IV dose of 0.5 mg/kg, 0.05 mg/kg or 0.005 mg/kg of G-CSF or EPO in a dose volume of 0.5 mL/kg. The NHPs were bled before dosing with the modified mRNA LNP formulations to determine protein expression in the serum and a baseline complete blood count. After administration with the G-CSF modified mRNA formulation the NHP were bled at 8, 24, 48 and 72 hours to determined protein expression. After administration with the EPO modified mRNA formulation the NHP were bled at 8, 24, 48, 72 hours and 7 days to determined protein expression.
Samples collected from the NHPs after they were administered with G-CSF or EPO modified mRNA formulations were analyzed by ELISA to determine protein expression. Neutrophil and reticulocyte count was also determined pre-dose, 24 hours, 3 days, 7 days, 14 days and 18 days after administration of the modified G-CSF or EPO formulation.

[1] = 0.005 mg/kg, 14/18 days, Female NHP
[2] = 0.005 mg/kg, 14/18 days, Male NHP
[3] = 0.005 mg/kg, 24 hours, Female NHP
[4] = 0.005 mg/kg, 24 hours, Male NHP
[5] = 0.005 mg/kg, 3 days, Female NHP
[6] = 0.005 mg/kg, 7 days, Female NHP
[7] = 0.005 mg/kg, Pre-dose, Female NHP
[8] = 0.005 mg/kg, Pre-dose, Male NHP
[9] = 0.05 mg/kg, 14/18 days, Female NHP
[10] = 0.05 mg/kg, 14/18 days, Male NHP
[11] = 0.05 mg/kg, 24 hours, Female NHP
[12] = 0.05 mg/kg, Pre-dose, Female NHP
[13] = 0.5 mg/kg, 14/18 days, Female NHP
[14] = 0.5 mg/kg, 14/18 days, Male NHP
[15] = 0.5 mg/kg, 24 hours, Female NHP
[16] = 0.5 mg/kg, Pre-dose, Female NHP

B1: G-CSF: modified mRNA encoding human G-CSF, SEQ ID NO: 4, Cap1, fully modified with 5-methylcytosine and pseudouridine; LNP-formulated in Examples 16-22 (nucleic acid)
chain: GGGAAAUAAGAGAGAAAAGAAGAGUAAGAAGAAAUAUAAGAGCCACCAUGGCCGGUCCCGCGACCCAAAGCCCCAUGAAACUUAUGGCCCUGCAGUUGCUGCUUUGGCACUCGGCCCUCUGGACAGUCCAAGAAGCGACUCCUCUCGGACCUGCCUCAUCGUUGCCGCAGUCAUUCCUUUUGAAGUGUCUGGAGCAGGUGCGAAAGAUUCAGGGCGAUGGAGCCGCACUCCAAGAGAAGCUCUGCGCGACAUACAAACUUUGCCAUCCCGAGGAGCUCGUACUGCUCGGGCACAGCUUGGGGAUUCCCUGGGCUCCUCUCUCGUCCUGUCCGUCGCAGGCUUUGCAGUUGGCAGGGUGCCUUUCCCAGCUCCACUCCGGUUUGUUCUUGUAUCAGGGACUGCUGCAAGCCCUUGAGGGAAUCUCGCCAGAAUUGGGCCCGACGCUGGACACGUUGCAGCUCGACGUGGCGGAUUUCGCAACAACCAUCUGGCAGCAGAUGGAGGAACUGGGGAUGGCACCCGCGCUGCAGCCCACGCAGGGGGCAAUGCCGGCCUUUGCGUCCGCGUUUCAGCGCAGGGCGGGUGGAGUCCUCGUAGCGAGCCACCUUCAAUCAUUUUUGGAAGUCUCGUACCGGGUGCUGAGACAUCUUGCGCAGCCGUGAAGCGCUGCCUUCUGCGGGGCUUGCCUUCUGGCCAUGCCCUUCUUCUCUCCCUUGCACCUGUACCUCUUGGUCUUUGAAUAAAGCCUGAGUAGGAAG
modifications: Cap1, 5-methylcytosine, pseudouridine
Female NHP HGB (0.005 mg/kg IV, 14/18 days): 129 g/L
Female NHP Neutrophils (0.005 mg/kg IV, 14/18 days): 2.28 10^9/L
Male NHP HGB (0.005 mg/kg IV, 14/18 days): 118 g/L
Male NHP Neutrophils (0.005 mg/kg IV, 14/18 days): 4.31 10^9/L
Female NHP HGB (0.005 mg/kg IV, 24 hours): 127 g/L
Female NHP Neutrophils (0.005 mg/kg IV, 24 hours): 8.6 10^9/L
Male NHP HGB (0.005 mg/kg IV, 24 hours): 117 g/L
Male NHP Neutrophils (0.005 mg/kg IV, 24 hours): 16.44 10^9/L
Female NHP HGB (0.005 mg/kg IV, 3 days): 127 g/L
Female NHP Neutrophils (0.005 mg/kg IV, 3 days): 1.78 10^9/L
Male NHP HGB (0.005 mg/kg IV, 3 days): 116 g/L
Male NHP Neutrophils (0.005 mg/kg IV, 3 days): 3.74 10^9/L
Female NHP HGB (0.005 mg/kg IV, 7 days): 129 g/L
Female NHP Neutrophils (0.005 mg/kg IV, 7 days): 2.27 10^9/L
Male NHP HGB (0.005 mg/kg IV, 7 days): 116 g/L
Male NHP Neutrophils (0.005 mg/kg IV, 7 days): 7.28 10^9/L
Female NHP HGB (0.005 mg/kg IV, Pre-dose): 129 g/L
Female NHP Neutrophils (0.005 mg/kg IV, Pre-dose): 2.54 10^9/L
Male NHP HGB (0.005 mg/kg IV, Pre-dose): 128 g/L
Male NHP Neutrophils (0.005 mg/kg IV, Pre-dose): 1.52 10^9/L
HCT [1]: 0.42 L/L
RBC [1]: 5.34 10^12/L
HCT [2]: 0.41 L/L
RBC [2]: 5.37 10^12/L
HCT [3]: 0.42 L/L
RBC [3]: 5.35 10^12/L
HCT [4]: 0.4 L/L
RBC [4]: 5.34 10^12/L
HCT [5]: 0.41 L/L
RBC [5]: 5.24 10^12/L
HCT (0.005 mg/kg, 3 days, Male NHP): 0.4 L/L
RBC (0.005 mg/kg, 3 days, Male NHP): 5.32 10^12/L
HCT [6]: 0.42 L/L
RBC [6]: 5.34 10^12/L
HCT (0.005 mg/kg, 7 days, Male NHP): 0.39 L/L
RBC (0.005 mg/kg, 7 days, Male NHP): 5.25 10^12/L
HCT [7]: 0.42 L/L
RBC [7]: 5.36 10^12/L
HCT [8]: 0.42 L/L
RBC [8]: 5.67 10^12/L
Female NHP HGB (0.05 mg/kg IV, 14/18 days): 123 g/L
Female NHP Neutrophils (0.05 mg/kg IV, 14/18 days): 1.82 10^9/L
Male NHP HGB (0.05 mg/kg IV, 14/18 days): 134 g/L
Male NHP Neutrophils (0.05 mg/kg IV, 14/18 days): 3.59 10^9/L
Female NHP HGB (0.05 mg/kg IV, 24 hours): 117 g/L
Female NHP Neutrophils (0.05 mg/kg IV, 24 hours): 29.91 10^9/L
Male NHP HGB (0.05 mg/kg IV, 24 hours): 122 g/L
Male NHP Neutrophils (0.05 mg/kg IV, 24 hours): 19.92 10^9/L
Female NHP HGB (0.05 mg/kg IV, 3 days): 115 g/L
Female NHP Neutrophils (0.05 mg/kg IV, 3 days): 10.77 10^9/L
Male NHP HGB (0.05 mg/kg IV, 3 days): 126 g/L
Male NHP Neutrophils (0.05 mg/kg IV, 3 days): 7.49 10^9/L
Female NHP HGB (0.05 mg/kg IV, 7 days): 116 g/L
Female NHP Neutrophils (0.05 mg/kg IV, 7 days): 3.8 10^9/L
Male NHP HGB (0.05 mg/kg IV, 7 days): 126 g/L
Male NHP Neutrophils (0.05 mg/kg IV, 7 days): 4.13 10^9/L
Female NHP HGB (0.05 mg/kg IV, Pre-dose): 129 g/L
Female NHP Neutrophils (0.05 mg/kg IV, Pre-dose): 3.05 10^9/L
Male NHP HGB (0.05 mg/kg IV, Pre-dose): 137 g/L
Male NHP Neutrophils (0.05 mg/kg IV, Pre-dose): 13.74 10^9/L
HCT [9]: 0.4 L/L
RBC [9]: 5.26 10^12/L
HCT [10]: 0.44 L/L
RBC [10]: 5.43 10^12/L
HCT [11]: 0.4 L/L
RBC [11]: 5.08 10^12/L
HCT (0.05 mg/kg, 24 hours, Male NHP): 0.39 L/L
RBC (0.05 mg/kg, 24 hours, Male NHP): 4.96 10^12/L
HCT (0.05 mg/kg, 3 days, Female NHP): 0.39 L/L
RBC (0.05 mg/kg, 3 days, Female NHP): 5.04 10^12/L
HCT (0.05 mg/kg, 3 days, Male NHP): 0.41 L/L
RBC (0.05 mg/kg, 3 days, Male NHP): 5.13 10^12/L
HCT (0.05 mg/kg, 7 days, Female NHP): 0.4 L/L
RBC (0.05 mg/kg, 7 days, Female NHP): 5.05 10^12/L
HCT (0.05 mg/kg, 7 days, Male NHP): 0.42 L/L
RBC (0.05 mg/kg, 7 days, Male NHP): 5.17 10^12/L
HCT [12]: 0.44 L/L
RBC [12]: 5.64 10^12/L
HCT (0.05 mg/kg, Pre-dose, Male NHP): 0.44 L/L
RBC (0.05 mg/kg, Pre-dose, Male NHP): 5.68 10^12/L
Female NHP HGB (0.5 mg/kg IV, 14/18 days): 113 g/L
Female NHP Neutrophils (0.5 mg/kg IV, 14/18 days): 1.98 10^9/L
Male NHP HGB (0.5 mg/kg IV, 14/18 days): 98 g/L
Male NHP Neutrophils (0.5 mg/kg IV, 14/18 days): 2.58 10^9/L
Female NHP HGB (0.5 mg/kg IV, 24 hours): 112 g/L
Female NHP Neutrophils (0.5 mg/kg IV, 24 hours): 13.96 10^9/L
Male NHP HGB (0.5 mg/kg IV, 24 hours): 113 g/L
Male NHP Neutrophils (0.5 mg/kg IV, 24 hours): 14.92 10^9/L
Female NHP HGB (0.5 mg/kg IV, 3 days): 114 g/L
Female NHP Neutrophils (0.5 mg/kg IV, 3 days): 13.7 10^9/L
Male NHP HGB (0.5 mg/kg IV, 3 days): 118 g/L
Male NHP Neutrophils (0.5 mg/kg IV, 3 days): 9.76 10^9/L
Female NHP HGB (0.5 mg/kg IV, 7 days): 116 g/L
Female NHP Neutrophils (0.5 mg/kg IV, 7 days): 3.81 10^9/L
Male NHP HGB (0.5 mg/kg IV, 7 days): 115 g/L
Male NHP Neutrophils (0.5 mg/kg IV, 7 days): 2.74 10^9/L
Female NHP HGB (0.5 mg/kg IV, Pre-dose): 129 g/L
Female NHP Neutrophils (0.5 mg/kg IV, Pre-dose): 1.27 10^9/L
Male NHP HGB (0.5 mg/kg IV, Pre-dose): 133 g/L
Male NHP Neutrophils (0.5 mg/kg IV, Pre-dose): 1.53 10^9/L
HCT [13]: 0.37 L/L
RBC [13]: 4.92 10^12/L
HCT [14]: 0.34 L/L
RBC [14]: 4.21 10^12/L
HCT [15]: 0.38 L/L
RBC [15]: 4.96 10^12/L
HCT (0.5 mg/kg, 24 hours, Male NHP): 0.37 L/L
RBC (0.5 mg/kg, 24 hours, Male NHP): 4.66 10^12/L
HCT (0.5 mg/kg, 3 days, Female NHP): 0.38 L/L
RBC (0.5 mg/kg, 3 days, Female NHP): 4.97 10^12/L
HCT (0.5 mg/kg, 3 days, Male NHP): 0.39 L/L
RBC (0.5 mg/kg, 3 days, Male NHP): 4.91 10^12/L
HCT (0.5 mg/kg, 7 days, Female NHP): 0.38 L/L
RBC (0.5 mg/kg, 7 days, Female NHP): 5.04 10^12/L
HCT (0.5 mg/kg, 7 days, Male NHP): 0.39 L/L
RBC (0.5 mg/kg, 7 days, Male NHP): 4.8 10^12/L
HCT [16]: 0.43 L/L
RBC [16]: 5.57 10^12/L
HCT (0.5 mg/kg, Pre-dose, Male NHP): 0.46 L/L
RBC (0.5 mg/kg, Pre-dose, Male NHP): 5.57 10^12/L
neutrophils relative to pre-dose levels (all dose groups): increase in neutrophils
